Positions count from the first letter of the chain named.
Tests used:
[1] = target: T1, mouse CB1 (mouse, UniProt P47746 1-473); assay: FACS on transfected HEK293T cells
T1 construct: also called muCB1; murine CB1

[2] = target: T2, human cannabinoid receptor type 2 (CB2) (human, UniProt P34972 1-360); assay: FACS on transfected HEK293T cells
T2 construct: also called huCB2; full length hu CB2

[3] = target: T3, human cannabinoid receptor 1 (huCB1), full length, expressed on cells (human, UniProt P21554 1-472); assay: cell-based or functional assay
[4] = target: T3, human cannabinoid receptor 1 (huCB1), …; assay: cell-based or functional assay; remark: listed apart in the source
[5] = target: T3, human cannabinoid receptor 1 (huCB1), …; assay: cell-based or functional assay; remark: listed apart in the source
[6] = target: T4, huCB1 nanodisc (CB1-ND) (human, UniProt P21554 99-414); assay: Octet BLI; antibody captured by anti-human Fc, CB1-nanodisc in solution, 1:1 model
T4 construct: The His-tagged CB1 is embedded in a POPC lipid nanodisc with MSP1D1 scaffold protein (molar ratio 480:8:1); also called huCB1-ND; #CB1-008

[7] = target: T3, human cannabinoid receptor 1 (huCB1), …; assay: cell-based or functional assay; remark: listed apart in the source
[8] = target: T3, human cannabinoid receptor 1 (huCB1), …; assay: KinExA on-cell ranking, HEK 293T cells expressing full length CB1; %IFF of LIBC523661 divided by %IFF of antibody
[9] = target: T3, human cannabinoid receptor 1 (huCB1), …; assay: cell-based or functional assay; remark: listed apart in the source
[10] = target: T3, human cannabinoid receptor 1 (huCB1), …; assay: cell-based or functional assay; remark: listed apart in the source
[11] = target: T3, human cannabinoid receptor 1 (huCB1), …; assay: cell-based or functional assay; remark: listed apart in the source
[12] = target: T3, human cannabinoid receptor 1 (huCB1), …; assay: KinExA on-cell ranking, HEK 293T cells expressing full length CB1; reference antibody of the ratio
[13] = target: T5, His-tagged huCB1-ND (human CB1 in nanodisc) (human); assay: flow cytometry, yeast-displayed IgG, binding/display ratio
T5 construct: CB1 construct of Cell 167(3) (2016) 750-762 expressed in Sf9 cells; POPC:MSP1D1:CB1 480:8:1; also called CB1-nanodisc; huCB1-Nanodisc; not shown: histidine purification tag

[14] = target: T2, human cannabinoid receptor type 2 (CB2); assay: binding to huCB2, fold over mock (method not described)
[15] = target: T6, full length human CB1 expressed on cells (human, UniProt P21554 1-472); assay: KinExA, on HEK 293T cells expressing full length CB1
T6 construct: also called huCB1; full length hu CB1

[16] = target: T1, mouse CB1; assay: fold over mock (Table 14)
[17] = target: T2, human cannabinoid receptor type 2 (CB2); assay: fold over mock (Table 14)
[18] = target: T7, GFP-fused huCB1-SMALP (human CB1 in styrene maleic acid lipoparticles) (human, UniProt P21554 1-472); assay: flow cytometry, yeast-displayed IgG, GFP MFI
T7 construct: Prepared as in Luna V. et al. 2018; also called huCB1-GFP-SMALP; wtCB1-SMALP; not shown: GFP fusion

[19] = target: T5, His-tagged huCB1-ND (human CB1 in …); assay: flow cytometry, yeast-displayed IgG, huCB1-ND over empty-ND
[20] = target: T1, mouse CB1; assay: binding to muCB1, fold over mock (method not described)

T2 sequence (P34972 whole entry): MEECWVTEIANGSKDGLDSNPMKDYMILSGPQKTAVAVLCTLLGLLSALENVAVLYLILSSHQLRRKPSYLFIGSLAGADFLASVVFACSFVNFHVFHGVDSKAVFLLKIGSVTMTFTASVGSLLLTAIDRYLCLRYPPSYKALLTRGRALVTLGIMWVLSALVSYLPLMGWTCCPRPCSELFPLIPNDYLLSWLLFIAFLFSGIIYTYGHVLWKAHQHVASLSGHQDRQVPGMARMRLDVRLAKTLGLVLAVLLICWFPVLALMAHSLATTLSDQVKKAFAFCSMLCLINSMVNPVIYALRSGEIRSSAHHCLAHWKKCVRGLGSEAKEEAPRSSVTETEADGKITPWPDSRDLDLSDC
T3 sequence (P21554 whole entry): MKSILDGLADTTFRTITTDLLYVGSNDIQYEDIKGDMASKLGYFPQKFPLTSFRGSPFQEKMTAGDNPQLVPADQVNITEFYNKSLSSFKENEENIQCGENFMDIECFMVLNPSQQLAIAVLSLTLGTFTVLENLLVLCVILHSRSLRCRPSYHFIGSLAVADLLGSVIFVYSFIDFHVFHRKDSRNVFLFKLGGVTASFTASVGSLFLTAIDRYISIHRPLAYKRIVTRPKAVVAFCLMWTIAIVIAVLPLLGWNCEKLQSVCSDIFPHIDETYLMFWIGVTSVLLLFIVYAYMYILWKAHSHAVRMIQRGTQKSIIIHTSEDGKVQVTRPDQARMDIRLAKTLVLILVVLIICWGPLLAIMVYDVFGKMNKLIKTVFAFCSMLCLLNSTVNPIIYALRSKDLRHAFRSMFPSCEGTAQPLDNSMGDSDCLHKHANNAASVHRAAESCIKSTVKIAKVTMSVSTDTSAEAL
T1 sequence (P47746 whole entry): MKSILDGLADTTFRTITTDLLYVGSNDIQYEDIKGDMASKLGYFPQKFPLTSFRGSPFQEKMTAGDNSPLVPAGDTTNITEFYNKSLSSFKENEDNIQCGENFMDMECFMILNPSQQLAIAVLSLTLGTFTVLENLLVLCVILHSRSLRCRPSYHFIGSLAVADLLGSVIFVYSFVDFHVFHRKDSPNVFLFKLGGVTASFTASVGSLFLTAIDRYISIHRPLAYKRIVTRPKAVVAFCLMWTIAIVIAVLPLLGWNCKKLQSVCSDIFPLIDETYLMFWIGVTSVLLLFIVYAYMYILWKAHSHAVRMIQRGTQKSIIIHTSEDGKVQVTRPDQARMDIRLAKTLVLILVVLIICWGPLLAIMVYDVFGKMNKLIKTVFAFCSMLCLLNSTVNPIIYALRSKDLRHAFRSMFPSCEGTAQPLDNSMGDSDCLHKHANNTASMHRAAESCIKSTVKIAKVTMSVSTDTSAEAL
T4 sequence (P21554 99-414 limits assumed): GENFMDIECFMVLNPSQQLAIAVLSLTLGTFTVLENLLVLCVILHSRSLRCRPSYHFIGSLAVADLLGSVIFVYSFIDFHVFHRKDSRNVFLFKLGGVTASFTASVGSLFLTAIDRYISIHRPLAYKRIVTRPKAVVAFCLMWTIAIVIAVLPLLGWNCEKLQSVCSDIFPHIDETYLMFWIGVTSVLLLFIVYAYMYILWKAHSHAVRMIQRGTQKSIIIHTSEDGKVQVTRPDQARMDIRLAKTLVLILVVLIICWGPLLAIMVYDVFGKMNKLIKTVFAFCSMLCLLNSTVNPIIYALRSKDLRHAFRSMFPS
T5 sequence (P21554 99-414): as the sequence (P21554 99-414 limits assumed) above
T6 sequence (P21554 whole entry): as the sequence (P21554 whole entry) above
T7 sequence (P21554 whole entry, the tested form may be a part): as the sequence (P21554 whole entry) above

B1: LIBC560340-1 (antibody, V domains shown)
VH: QVQLQESGPGLVKPSQTLSLICIVSGGSIRRGGDYWNWIRQHPGKGLEWIGHIYYSGSKNYNPSLKSRVTISVDTSKNQFSLKLSSVTAADTAVYYCARGYDSSGYSYYYYGMDVWGQGTTVTVSS
VL: DIVMTQSPLSLPVTPGEPASISCRSSQSLLYSNGHNFLDWYLQKPGQSPQLLIYLGSNRASGVPDRFSGSGSGTDFTLKISRVEAEDVGVYYCMQALQTPRTFGGGTKVEIKR
[1]
  binding result: no binding
[2]
  binding result: no binding

B2: LIBC560657-1 (antibody, V domains shown)
VH: B1 VH with Q5R, S56T, S58T, N60Y
VL: B1 VL with F37Y, S61P, Y92F
[1]
  binding result: no binding
[2]
  binding result: no binding

B3: LIBC527814-1 (antibody, V domains shown)
VH: QVQLQESGPGLVKPSQTLSLTCTVSGGSIRRGGDYWGWIRQHPGKGLEWIGHVYQTGSTKYNPSFKDRATISVNTYKNQFSLKLSSVTAADTAVYYCARNYDTLTGYSYYYYGMDVWGQGTTVTVSS
VL: DIQMTQSPSTLSASVGDRVTITCRASQSISNYLNWYQQKPGKAPKLLIYAASSLHSGVPSRFSGSGSGTDFTLTISSLQPEDFASYYCQQYQSYPLTFGQGTKVEIKR
notes: Expressed as IgG1 SEFL2 mAb
[3]
  IC50, nM (CP agonist): 2.1 nM
[4]
  Mean IC50 (nM, n = 3), cAMP antagonist assay: 2.07 nM
[5]
  IC50 (nM), antagonist assay: 3.8 nM
[6]
  Kd: 35 nM
  koff: 0.00198 s⁻¹
  kon: 56600 M⁻¹ s⁻¹
[7]
  Mean IC50 (nM), cAMP antagonist assay: 2.97 nM
  Mean IC50, -fold vs Rimo: 0.99 fold vs Rimonabant
  n = 1 IC50 (nM), cAMP antagonist assay: 4.72 nM
  n = 1 IC50, -fold vs Rimo: 1.12 fold vs Rimonabant
  n = 2 IC50 (nM), cAMP antagonist assay: 1.22 nM
  n = 2 IC50, -fold vs Rimo: 0.68 fold vs Rimonabant
[8]
  Relative binding (KinExA, on cell; vs LIBC523661 mAb): 1.9 ratio

B4: LIBC528116-1 (antibody, V domains shown)
VH: B3 VH with G37A, Q55Y, K60N, S64R, L104V
VL: B3 VL with M4L
notes: Expressed as IgG1 SEFL2 mAb; also called 37940-4
[9]
  Antagonist assay IC50 (nM), 2-AG: 7.2 nM
  Antagonist assay IC50 (nM), Anandamide: 17 nM
  Antagonist assay IC50 (nM), CP 55,940: 1.8 nM
  Inverse agonist assay IC50: 31.7 nM
[3]
  IC50, nM (CP agonist): 1.8 nM
[10]
  IC50: 2.7 nM
[4]
  Mean IC50 (nM, n = 3), cAMP antagonist assay: 1.77 nM
[6]
  Kd: 29 nM
[7]
  Mean IC50 (nM), cAMP antagonist assay: 2.4 nM
  n = 1 IC50 (nM), cAMP antagonist assay: 3.93 nM
  n = 2 IC50 (nM), cAMP antagonist assay: 0.88 nM

B5: 10D10 (antibody, V domains shown)
VH: QVQLQESGPGLVKPSQTLSLTCTVSGGSIRRGGDYWSWIRQHPGKGLEWIGYIYYSGSTNYNPSLKSRATISVDTSKNQFSLKLSSVTAADTAVYYCARDYDILTGYSYYYYGMDVWGQGTTVTVSS
VL: not shown
notes: Parent antibody from XenoMouse; also called 10D10 antibody
[9]
  Antagonist assay IC50 (nM), 2-AG: 178 nM
  Antagonist assay IC50 (nM), Anandamide: 6040 nM
  Antagonist assay IC50 (nM), CP 55,940: 120 nM
  Inverse agonist assay IC50: 295 nM
[3]
  IC50, nM (CP agonist): 121 nM
[4]
  Mean IC50 (nM, n = 3), cAMP antagonist assay: 120 nM
[5]
  IC50 (nM), antagonist assay: 144 nM
[6]
  Kd: 755 nM
[11]
  IC50, nM (TR-FRET cAMP assay, CP55,940 and Forskolin): 120 nM
[7]
  Mean IC50 (nM), cAMP antagonist assay: 80.8 nM
  n = 1 IC50 (nM), cAMP antagonist assay: 118 nM
  n = 2 IC50 (nM), cAMP antagonist assay: 43.4 nM

B6: LIBC523661-1 (antibody, V domains shown)
VH: B3 VH with G37S, V53I, Q55Y, T56E, D67G, N100D, T103P, L104V, Y107H
VL: DIVMTQSPLSLPVTPGEPASISCRSSQSLLTSSGYNYVDWYLQKPGQSPQLLIYQGSNRASGVPDRFSGSGSGTDFTLKISRVEAEDVGVYYCRQARAIPRTFGQGTKVEIKR
notes: Expressed as IgG1 SEFL2 mAb
[3]
  IC50, nM (CP agonist): 3.9 nM
[4]
  Mean IC50 (nM, n = 3), cAMP antagonist assay: 3.88 nM
[12]
  Relative binding (KinExA, on cell; vs LIBC523661 mAb): 1 ratio
[6]
  Kd: 77 nM
  koff: 0.00275 s⁻¹
  kon: 35700 M⁻¹ s⁻¹
[7]
  Mean IC50 (nM), cAMP antagonist assay: 3.3 nM
  Mean IC50, -fold vs Rimo: 1.1 fold vs Rimonabant
  n = 1 IC50 (nM), cAMP antagonist assay: 5.24 nM
  n = 1 IC50, -fold vs Rimo: 1.24 fold vs Rimonabant
  n = 2 IC50 (nM), cAMP antagonist assay: 1.35 nM
  n = 2 IC50, -fold vs Rimo: 0.75 fold vs Rimonabant

B7: LIBC523661-1 (antibody, IgG1, V domains shown)
VH: B3 VH with G37S, V53I, Q55Y, T56E, D67G, N100D, T103P, L104V, Y107H
VL: B6 VL
[13]
  relative binding to 0.2 nM huCB1-ND (relative to 10D10N35Y): 4.03 fold
[14]
  Fold over mock: 0.8 fold
[15]
  Kd: 0.064 nM
[16]
  binding result: no binding
[17]
  binding result: no binding
[18]
  100 nM huCB1-SMALP binding (normalized to 10D10): 8 fold
[19]
  specific huCB1 binding (CB1 ND/Empty ND ratio): 9.32 ratio
[20]
  Fold over mock: 0.7 fold

— patent publication US20250277029A1 (Amgen, published 2025)
